Results reported in the nanobody polyreactivity screen of Harvey et al. (2022).

Experiment: yeast display, Sf9 membrane polyspecificity reagent, FACS + sequencing; frameworks hold sequencing errors
Outline: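 After 36–48 hours of galactose induction, yeast (Saccharomyces cerevisiae BJ5465) displaying a synthetic nanobody library were stained at 4 °C for 1 hour with 10% biotinylated, detergent-solubilized Sf9 membrane reagent. Streptavidin microbeads enriched the stained cells before FACS sorting into low and high (top ~1%) gates on anti-HA and streptavidin fluorescence. Each clone's polyreactivity label reflects its gate of origin.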

Sequence | polyreactivity (PSR sort gate)
QVQLQESGGGLEPAGGSLRLSCAASGTISVHASMGWYRQAPGKERELVAGITDGANTYYADSVKGRFTISRDNSKNTVYLQMNSLKPEDTAVYYCAAYYGTAFHFTYWCQGTQVTVSS | low polyreactivity
QVQLVESGGGLVQAGGSLRLSCAASGRTFYGNAMGWYRQAPGKERELVAAINYSGGRTFYADSVKGRFTISRDNAKNTVYLQMNSLKPEDTAVYYCAAQDTYYGLFSYWIPWSGYWGQGTQVTVSS | high polyreactivity
QVQLVESGGGLVHAGCSLRLSCAASVSTFQVYGLGWYRQAPGKEREMVAAISRSGVRTYYADSVKARFTMSRDNAKNTVYLQMNSLKPEDTAVYYCAKTYQSTTSKSGYYYWGQGTQVTVSS | high polyreactivity
QVQHVESGGGLVQAGGSLRLSCAASGFTFRWYTMGWYRQAPGKERELVASIRYGGGSTYYADSVKGRFTISRDNAKNTVYLQMNSLKPEDTAVYYCAAESAWTSPYDYWGQGTQVTVSS | high polyreactivity
QDQLVESGGGLVQAGGSLRLSCAASGRTFYDNAMGWYRQAPGKERELVAAITWRGGGTYYADSVKGRFTISRDNAKNTVYLQMNSLKPEDTAVYYCAADSSGTGFYAYTDGEEKYSWGQGTQVTVSS | high polyreactivity
QVQLVESGGGLVQAGGSLRLSCAASGSIFYLYVMGWYRQAPGKERELVAAINWSGSRTYYADSVKGRFTISRDNAKNTVYLQMNSLKPEDTAVYYCNAVRATGQASQEGEYWGQGTQVTVSS | high polyreactivity
QVQLVESGGGLVQAGGSLRLSCAASGYTCDANAMGWYRQATGKERELVASISSISDSTDYADAVKGRITISRDNATNTVYLQMKILKPEDTAVYYCARSDVKPGRQERDYWGQGTQVTVSS | low polyreactivity
QVQLVESGGGLVQAGGSLRLSCAASGLIFQYYAMGWYRQAPGKERELVASISGSGSSTYYADSVKGRFTISRDNEKNTVYLQMYSLKPEDTAVYYCAAGWGRGWYDYWGQGTQVTVSS | high polyreactivity
QVQLVESGGGLVQAGGSLRLSCAASGRIFHRNAMGWYRQAPGKERELVATIRGNGGSTYYADSVKGRFTISRDNAKNTVYLQMNSLKPEDTAVYYCALDAQGYGGWWTYSRFYSWGQGTQVTVSS | high polyreactivity
QVQLVESGGGLVQAGGSLRLSCAASGSIFTYYAMGWYRQAPGKERELVAAISWSGGSTYYADSVKGRFTISRDNAKNTVYLQMNSLKPEDTAVYYCAAGRFYKWSRYQEYDYWGQGTQVTVSS | low polyreactivity
QVQLVESGGGLDQAGGSLRLSCAASGRTFVYYALGWYRQAPRQERELVAAITWSGGRTYYADSVKGRFTISRDNAKNTVYLQMNSLKPEDTAVYYCNRDQWAWESGYAYNYCGQGTQVTVSS | low polyreactivity
QVQLEESGGGLVQAGGSLRLSCAASGLIFIQYAMVWNRQAPGKERELVAAISGSGVTTYYADSVNGSFTISRDKAMNTVYLQMTSLKPEDTAVYYCNAALRWKYDWGQGTQVTVSS | low polyreactivity
QVQLVESGGGLVQAGGSLRLSCAASGRTFYAYAMGWSRQAPGKERELVAAISWRGGDTYYADSVKGRFTISRDNAKNTVYLQMNSLKPEDTAVYYCAKYLSRQSGDGEYDYWGQGTQVTVSS | low polyreactivity
QVQLVESGGGLVQAGGSLRLSCAASGITFHRYAMGWYRQAPGKERELVAAITKRGGSTNYADSVKGRFTISRDNAKNTVYLQMNSLKPEDTAVYYCNARSTWPSGRYAHYRRYYYWGQGTQVTVSS | high polyreactivity
QVQLVESGGGLVQAGGSLRLSCAASGSIFTYYAMGWYRQAPGKERELVDAITWDDDGTYYADSVKGRFTISRDNAKNTVYLQMNSLKPEDTAVYYCAADDGDPYDYWGQGSQVTVSS | low polyreactivity
QVQLVESGGGLVQAGGSLRLSCAASGRTFCRYAMGWYIQAPGKERELVASISVSGGGTYYADSVKGRFTISRDNAKNTVFLQMNSLKPQDTAVYYCAARPVYYRYRRDYWGQGTHVTVSS | high polyreactivity
QVQLVESGGGLVHAGGSLRISCAASGSTFPYYAMGWYRQAPVKERELVAAISRSGGSTYYADSVKGRFTISRDNAKNTVYLQMNRLKPEDTAVYYCNARLARWGSYEYNYWGQGTQVNVSS | low polyreactivity
